Values of other authors as cited in paper PMC8189991.

Target: Asp96 (UniProt position 109, PLLLLDLALLV)
Assay: IR

## Bacteriorhodopsin (Halobacterium salinarum (not stated in the article; inferred))
  pKa: above 12
